From patent publication US20130071921A1 (Pfizer, published 2013)
Positions count from the first letter of the chain named.

B1: L2.1B5 (Fab, V domains shown)
VH: EVQLVESGGGLVQPGGSLRLSCAASGFTFSSYAISWVRQAPGKGLEWVASVSGWGDTYYPDSVKGRFTISRDNAKNSLYLQMNSLRAEDTAVYYCATSLENYAFDYWGQGTTVTVSS
VL: EIVLTQSPATLSLSPGERATLSCRASESVDDFGISFMNWYQQKPGQAPRLLIYAASKQGSGIPARFSGSGSGTDFTLTISSLEPEDFAVYYCQQSKEVPPTFGGGTKVEIK
notes: tested as Fab (E. coli lysate, screening mode); human kappa CL and IgG2 CH1 not included here
B2: L3.4E10 (Fab, V domains shown)
VH: B1 VH with D56H, E100Q
VL: B1 VL with M37I, A55G, S95L
notes: as for B1
B3: L2.4G10 (Fab, V domains shown)
VH: B1 VH with G55L, E100R
VL: B1 VL
notes: as for B1
B4: L2.1G8 (Fab, V domains shown)
VH: B1 VH with G55F
VL: B1 VL
notes: as for B1
B5: L2.P4.H3 (Fab, V domains shown)
VH: B1 VH with G55L
VL: B1 VL
notes: as for B1
B6: L2.1F11 (Fab, V domains shown)
VH: B1 VH with G55L, E100Q
VL: B1 VL
notes: as for B1
B7: L3.4H5 (Fab, V domains shown)
VH: B1 VH with T97S, E100D
VL: B1 VL with M37I, A55G, S95L
notes: as for B1
B8: 24m5 (Fab, V domains shown)
VH: B1 VH with W54G, D56R
VL: B1 VL with A55G, S56T
notes: as for B1
B9: L3.1H3 (Fab, V domains shown)
VH: B1 VH with G55L, D56H
VL: B1 VL with M37I, A55G, S95L
notes: as for B1
B10: L3.1B12 (Fab, V domains shown)
VH: B1 VH with G55F, D56G
VL: B1 VL with M37I, A55G, S95L
notes: as for B1
B11: L2.P4.C10 (Fab, V domains shown)
VH: B1 VH with E100K
VL: B1 VL
notes: as for B1
B12: L2.4B10 (Fab, V domains shown)
VH: B1 VH with G55Y
VL: B1 VL
notes: as for B1
B13: 24 (Fab, V domains shown)
VH: B1 VH with W54G, D56R
VL: B1 VL
notes: positive control Fab of the screening assays; human kappa CL and IgG2 CH1 not included here; printed changes identical to L2.1E5; also called clone 24; Clone 24 Fab
B14: L3.2H10 (Fab, V domains shown)
VH: B1 VH with G55L, D56G, E100K
VL: B1 VL with M37I, A55G, S95L
notes: as for B1
B15: 24m4 (Fab, V domains shown)
VH: B1 VH with W54G, D56R
VL: B1 VL with M37L
notes: as for B1
B16: L3.1A3 (Fab, V domains shown)
VH: B1 VH with G55F, D56H, E100R
VL: B1 VL with M37I, A55G, S95L
notes: as for B1
B17: L3.4H2 (Fab, V domains shown)
VH: B1 VH with E100Q
VL: B1 VL with M37I, A55G, S95L
notes: tested as Fab (E. coli lysate, screening mode); human kappa CL and IgG2 CH1 not included here; printed changes identical to L3.4E7
B18: 2G9.33L (Fab, V domains shown)
VH: B1 VH with E100R
VL: B1 VL with M37I, A55G, S95L
notes: as for B1
B19: L3.1D7 (Fab, V domains shown)
VH: B1 VH with G55F, D56R, E100R
VL: B1 VL with M37I, A55G, S95L
notes: as for B1
B20: L2.P4.E7 (Fab, V domains shown)
VH: B1 VH with E100R
VL: B1 VL
notes: as for B1
B21: 1F10.33L (Fab, V domains shown)
VH: B1 VH with W54G, G55F, D56Q, E100D
VL: B1 VL with M37I, A55G, S95L
notes: human kappa CL and IgG2 CH1 not included here
B22: L3.2H8 (Fab, V domains shown)
VH: B1 VH with G55L, D56G, E100Q
VL: B1 VL with M37I, A55G, S95L
notes: as for B1
B23: L2.1G4 (Fab, V domains shown)
VH: B1 VH with G55F, Y106K
VL: B1 VL
notes: as for B1
B24: 24m6 (Fab, V domains shown)
VH: B1 VH with W54G, D56R
VL: B1 VL with A55G
notes: as for B1
B25: L2.1D12 (Fab, V domains shown)
VH: B1 VH with G55F, E100Q
VL: B1 VL
notes: as for B1
B26: L2.1E5 (Fab, V domains shown)
VH: B1 VH with W54G, D56R
VL: B1 VL
notes: tested as Fab (E. coli lysate, screening mode); human kappa CL and IgG2 CH1 not included here; printed changes identical to clone 24
B27: L3.4E7 (Fab, V domains shown)
VH: B1 VH with E100Q
VL: B1 VL with M37I, A55G, S95L
notes: tested as Fab (E. coli lysate, screening mode); human kappa CL and IgG2 CH1 not included here; printed changes identical to L3.4H2
B28: L3.4E6 (Fab, V domains shown)
VH: B1 VH with W54G, G55L, D56G, E100R
VL: B1 VL with M37I, A55G, S95L
notes: as for B1
B29: 2H10.33L (Fab, V domains shown)
VH: B1 VH with G55F, E100Q
VL: B1 VL with M37I, A55G, S95L
notes: as for B1
B30: L2.P4.B5 (Fab, V domains shown)
VH: B1 VH with L99Y
VL: B1 VL
notes: as for B1
B31: L2.1B11 (Fab, V domains shown)
VH: B1 VH with G55F, E100R
VL: B1 VL
notes: as for B1
B32: L2.4D11 (Fab, V domains shown)
VH: B1 VH with G55M
VL: B1 VL
notes: as for B1

What follows are binders tested against T1, Recombinant human Dkk-1 (R&D Systems cat no. 1096-DK/CF), 10xHis tag at the C terminal (human, UniProt O94907 32-266) (assay: theoretical: koff / estimated kon 1e6 1/Ms (SPR screening 37C)).
T1 construct: the actual N-terminus of the purified protein is marked in bold italic after residue 30, but the mark is an image lost in the text; also called rhuDkk-1; hDkk-1
T1 sequence: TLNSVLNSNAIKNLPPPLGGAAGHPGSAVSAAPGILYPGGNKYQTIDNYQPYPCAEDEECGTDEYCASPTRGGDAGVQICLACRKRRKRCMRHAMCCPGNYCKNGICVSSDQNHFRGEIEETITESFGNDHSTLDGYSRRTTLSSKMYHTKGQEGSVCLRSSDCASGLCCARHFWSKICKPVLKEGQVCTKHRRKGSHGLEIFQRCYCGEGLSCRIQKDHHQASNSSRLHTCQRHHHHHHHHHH
Protocol: (§1) For screening assays to determine binding and dissociation rates of huMabJC18 variants to human Dkk1, either BIAcore or ProteOn XPR36 (BioRad, Inc.) systems were used. For the BIAcore assay, biotinylated-human Dkk1 was captured on SA (streptavidin) BIAcore chips according to the supplier's instructions. Biotinylated-human Dkk-1 protein was diluted into HBS-EP, and injected over the chip at a concentration of 5 μg/mL. Flow times across the individual chip channels were selected to achieve an antigen density of approximately 500-600 response units (RU). HBS-EP buffer was used as running buffer. Filtered recombinant E.coli cell lysates were injected at high temperature (37° C.) for 1 min at 30 ul/min, allowing a 1-5 min dissociation phase. Surfaces were regenerated with 8 mM NaOH+8% ethanol. A positive control Fab (clone 24) was injected twice at the start of the experiment, and again at the end of the assay to assess reproducibility.
For the ProteOn assay, biotinylated human Dkk-1 was injected for 1 min at serial fold dilutions empirically determined to yield different levels of immobilization (150-3000 RU) on five channels of a ProteOn NLC Neutravidin sensor chip. The sixth channel was left unmodified to serve as a reference surface. Recombinant Fabs in filtered E. coli lysates were injected at high temperature (37° C.) for 50 sec at 20 μl/min. Running buffer consisted of PBS+1 mg/ml BSA+0.005% Tween-20. The ProteOn is configured such that each injection flows over each of the five Dkk-1 channels as well as the reference channel, and six Fab samples can be injected simultaneously. Fab dissociation from the Dkk-1 surface was monitored for 20 min. The chip surface was regenerated with a 30-sec injection of 8% EtOH, 8 mM NaOH. Clone 24 Fab was used as control. Level of binding during association, and rate of dissociation for each clone was very consistent between different ligand channels. […]

Binder | Kd
B1 | 4.42 nM
B2 | 0.533 nM
B3 | 2.76 nM
B4 | 2.55 nM
B5 | 2.74 nM
B6 | 2.12 nM
B7 | 0.808 nM
B8 | 8.74 nM
B9 | 1.15 nM
B10 | 0.21 nM
B11 | 4.31 nM
B12 | 3.45 nM
B13 | 11.4 nM
B14 | 0.569 nM
B15 | 11.8 nM
B16 | 0.184 nM

Binder | Kd
B17 | 0.048 nM
B18 | 0.283 nM
B19 | 0.164 nM
B20 | 5.19 nM
B21 | 0.09 nM
B22 | 0.555 nM
B23 | 3.12 nM
B24 | 9.14 nM
B25 | 2.78 nM
B26 | 5.7 nM
B27 | 0.276 nM
B28 | 0.99 nM
B29 | 0.148 nM
B30 | 5.32 nM
B31 | 2.07 nM
B32 | 3.26 nM

Each binder was assayed against T1, Recombinant human Dkk-1 (R&D Systems …) (assay: SPR screening 37C (BIAcore/ProteOn), Fab lysate over biotinylated human Dkk-1).
Protocol: as §1
For the ProteOn assay, biotinylated human Dkk-1 was injected for 1 min at serial fold dilutions empirically determined to yield different levels of immobilization (150-3000 RU) on five channels of a ProteOn NLC Neutravidin sensor chip. The sixth channel was left unmodified to serve as a reference surface. Recombinant Fabs in filtered E. coli lysates were injected at high temperature (37° C.) for 50 sec at 20 μl/min. Running buffer consisted of PBS+1 mg/ml BSA+0.005% Tween-20. The ProteOn is configured such that each injection flows over each of the five Dkk-1 channels as well as the reference channel, and six Fab samples can be injected simultaneously. Fab dissociation from the Dkk-1 surface was monitored for 20 min. The chip surface was regenerated with a 30-sec injection of 8% EtOH, 8 mM NaOH. Clone 24 Fab was used as control. Level of binding during association, and rate of dissociation for each clone was very consistent between different ligand channels.

Binder | koff
B1 | 0.00442 s⁻¹
B2 | 0.000533 s⁻¹
B3 | 0.00276 s⁻¹
B4 | 0.00255 s⁻¹
B5 | 0.00274 s⁻¹
B6 | 0.00212 s⁻¹
B7 | 0.000808 s⁻¹
B8 | 0.00874 s⁻¹
B9 | 0.00115 s⁻¹
B10 | 0.00021 s⁻¹
B11 | 0.00431 s⁻¹
B12 | 0.00345 s⁻¹
B13 | 0.0114 s⁻¹
B14 | 0.000569 s⁻¹
B15 | 0.0118 s⁻¹
B16 | 0.00018 s⁻¹

Binder | koff
B17 | 4.8e-05 s⁻¹
B18 | 0.000283 s⁻¹
B19 | 0.000164 s⁻¹
B20 | 0.00519 s⁻¹
B21 | 8.99e-05 s⁻¹
B22 | 0.000555 s⁻¹
B23 | 0.00312 s⁻¹
B24 | 0.00914 s⁻¹
B25 | 0.00278 s⁻¹
B26 | 0.0057 s⁻¹
B27 | 0.000276 s⁻¹
B28 | 0.00099 s⁻¹
B29 | 0.000148 s⁻¹
B30 | 0.00532 s⁻¹
B31 | 0.00207 s⁻¹
B32 | 0.00326 s⁻¹
